From US7034007 come the findings set out here.

For assay [1], the target named is B2 bradykinin receptor (rabbit airway smooth muscle membranes) (rabbit) (UniProt Q28642). Kind of assay: radioligand binding, airway smooth muscle membranes of saline-treated control allergic rabbits.
Assay [2] shares this target. Kind of assay: radioligand binding, airway smooth muscle membranes of allergic rabbits treated with B2MM mismatch oligo, 2 mg total.
Assay [3] shares this target. Description: radioligand binding, airway smooth muscle membranes of allergic rabbits treated with B2MM mismatch oligo, 20 mg total.
The target is the same in assay [4]. Description: radioligand binding, airway smooth muscle membranes of allergic rabbits treated with B2MM mismatch oligo, 0.2 mg total.
Assay [5] has the same target. Description: radioligand binding, airway smooth muscle membranes of allergic rabbits treated with A1MM1 mismatch control oligo, 2 mg total.
For assay [6] the target is unchanged. Description: radioligand binding, airway smooth muscle membranes of allergic rabbits treated with A1MM1 mismatch control oligo, 20 mg total.
For assay [7] the target is unchanged. Kind of assay: radioligand binding, airway smooth muscle membranes of allergic rabbits treated with adenosine A1 receptor antisense oligo, 2 mg total.
For assay [8] the target is unchanged. Kind of assay: radioligand binding, airway smooth muscle membranes of allergic rabbits treated with adenosine A1 receptor antisense oligo, 20 mg total.
Assay [9] shares this target. Kind of assay: radioligand binding, airway smooth muscle membranes of allergic rabbits treated with B2A bradykinin receptor antisense oligo, 2 mg total.
For assay [10] the target is unchanged. Kind of assay: radioligand binding, airway smooth muscle membranes of allergic rabbits treated with adenosine A1 receptor antisense oligo, 0.2 mg total.
The target is the same in assay [11]. Kind of assay: radioligand binding, airway smooth muscle membranes of allergic rabbits treated with B2A bradykinin receptor antisense oligo, 20 mg total.
Assay [12] shares this target. Kind of assay: radioligand binding, airway smooth muscle membranes of allergic rabbits treated with B2A bradykinin receptor antisense oligo, 0.2 mg total.

Chain of UniProt Q28642 (Q28642 whole entry): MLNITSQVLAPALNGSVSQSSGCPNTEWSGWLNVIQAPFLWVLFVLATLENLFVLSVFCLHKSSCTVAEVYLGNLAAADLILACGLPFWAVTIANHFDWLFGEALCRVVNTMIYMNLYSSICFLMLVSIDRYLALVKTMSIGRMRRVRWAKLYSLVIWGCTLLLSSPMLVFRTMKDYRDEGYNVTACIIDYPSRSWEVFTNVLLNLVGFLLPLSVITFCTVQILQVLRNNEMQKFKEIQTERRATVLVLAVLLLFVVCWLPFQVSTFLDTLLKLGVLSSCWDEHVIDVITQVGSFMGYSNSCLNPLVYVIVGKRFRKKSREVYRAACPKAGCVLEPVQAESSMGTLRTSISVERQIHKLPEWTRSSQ

As a reminder, the Kd is the concentration at which binding is half-saturated. Read a high Kd as weaker binding. For [3H]NPC 17731 (peptide), the Bmax was found to be 14.2 fmol in [1]; 14.8 fmol in [2]; 14 fmol in assay [3]; 15.1 fmol in [4]; 14.6 fmol in assay [5]; 14 fmol in [6]. Moreover, the Bmax in assay [7] was 15.5 fmol; in assay [8] it was 14.8 fmol; in [9] it was 11.9 fmol; in assay [10], 15 fmol; in [11], 8.7 fmol; in [12], 15.1 fmol. In addition, the Kd was found to be 0.39 nM in assay [1]; 0.37 nM in assay [2]; 0.41 nM in assay [3]; 0.36 nM in assay [4]; 0.38 nM in assay [5]; 0.35 nM in assay [6]. Also, the Kd in [7] was found to be 0.41 nM; in assay [8] it was 0.39 nM; in assay [9] it was 0.34 nM; in assay [10], 0.34 nM; in assay [11] it was 0.38 nM; in assay [12], 0.35 nM.
